Test system: SK2 channel
Assay: Whole cell patch clamp recording of SK2 current in pancreatic cancer cells
Format: cell-based, human
Details: cells treated without CAF-CM; EGF 25 ng/mL overnight
Protocol: Electrophysiological recordings in HEK293-T, PANC-1 and MiaPaCa-2 cells were performed in the whole cell configuration of the patch clamp technique at room temperature. Cells were bathed in a solution containing: 5 mM KCl, 145 mM NaCl, 1 mM MgCl2, 2 mM CaCl2, and 10 mM Hepes (pH adjusted to 7.4 with HCl, 300 mosm/L). Soft glass patch electrodes (Brand, Wertheim, Germany) were made on a horizontal pipette puller (P-97, Sutter Instrument Co., Novato, CA) to achieve a final resistance ranging from 3 to 5 MΩ. The internal solution was: 145 mM KCl, 1 mM MgCl2, 0.87 mM CaCl2, 1 mM EGTA, 10 mM Hepes, 1 mM ATP (pH adjusted to 7.2 with KOH, 308 mosm/L, pCa 6). Recordings were performed at room temperature in the voltage clamp mode using an PC-controlled EPC 9 patch-clamp amplifier (HEKA, Lambrecht/Pfalz, Germany). Currents were acquired and analyzed with Pulse and Pulsefit software (HEKA). Signal were filtered at 10 kHz and digitalized at 20 kHz. Currents were elicited by voltage ramps protocols (from −120 to +60 mV). Current density was measured at 0 mV. For the electrophysiological study of the SK2 mutations, HEK293-T were transfected with the different constructions and the HA-myr-AKT using calcium phosphate and recorded 24 h after transfection.

B1: EGF: EGFR ligand; growth factor applied to cells at 25 ng/mL (protein, UniProt P01133 23-1207, looked up)
Pro-epidermal growth factor: PQHWSCPEGTLAGNGNSTCVGPAPFLIFSHGNSIFRIDTEGTNYEQLVVDAGVSVIMDFHYNEKRIYWVDLERQLLQRVFLNGSRQERVCNIEKNVSGMAINWINEEVIWSNQQEGIITVTDMKGNNSHILLSALKYPANVAVDPVERFIFWSSEVAGSLYRADLDGVGVKALLETSEKITAVSLDVLDKRLFWIQYNREGSNSLICSCDYDGGSVHISKHPTQHNLFAMSLFGDRIFYSTWKMKTIWIANKHTGKDMVRINLHSSFVPLGELKVVHPLAQPKAEDDTWEPEQKLCKLRKGNCSSTVCGQDLQSHLCMCAEGYALSRDRKYCEDVNECAFWNHGCTLGCKNTPGSYYCTCPVGFVLLPDGKRCHQLVSCPRNVSECSHDCVLTSEGPLCFCPEGSVLERDGKTCSGCSSPDNGGCSQLCVPLSPVSWECDCFPGYDLQLDEKSCAASGPQPFLLFANSQDIRHMHFDGTDYGTLLSQQMGMVYALDHDPVENKIYFAHTALKWIERANMDGSQRERLIEEGVDVPEGLAVDWIGRRFYWTDRGKSLIGRSDLNGKRSKIITKENISQPRGIAVHPMAKRLFWTDTGINPRIESSSLQGLGRLVIASSDLIWPSGITIDFLTDKLYWCDAKQSVIEMANLDGSKRRRLTQNDVGHPFAVAVFEDYVWFSDWAMPSVMRVNKRTGKDRVRLQGSMLKPSSLVVVHPLAKPGADPCLYQNGGCEHICKKRLGTAWCSCREGFMKASDGKTCLALDGHQLLAGGEVDLKNQVTPLDILSKTRVSEDNITESQHMLVAEIMVSDQDDCAPVGCSMYARCISEGEDATCQCLKGFAGDGKLCSDIDECEMGVPVCPPASSKCINTEGGYVCRCSEGYQGDGIHCLDIDECQLGEHSCGENASCTNTEGGYTCMCAGRLSEPGLICPDSTPPPHLREDDHHYSVRNSDSECPLSHDGYCLHDGVCMYIEALDKYACNCVVGYIGERCQYRDLKWWELRHAGHGQQQKVIVVAVCVVVLVMLLLLSLWGAHYYRTQKLLSKNPKNPYEESSRDVRSRRPADTEDGMSSCPQPWFVVIKEHQDLKNGGQPVAGEDGQAADGSMQPTSWRQEPQLCGMGTEQGCWIPVSSDKGSCPQVMERSFHMPSYGTQTLEGGVEKPHSLLSANPLWQQRALDPPHQMELTQ
modifications: Pro-epidermal growth factor
notes: EGFR ligand; growth factor applied to cells at 25 ng/mL
**Q.** How did the SK2 current turn out when B1 was run?
**A.** Its SK2 current is “significant increase”.

Reference: patent US20260083725A1, “SIGMARI LIGAND FOR THE TREATMENT OF PANCREATIC CANCER” (INSTITUT NATIONAL DE LA SANTÉ ET DE LA RECHERCHE MÉDICALE, priority 2022, published 2026)
